Data as given in article PMC10100024 (British Journal of Pharmacology, 2022).

Legend:
Experiment in all cases: FRET or BRET
[1] = molecular target: T1, pplss-3HA-hCB1 receptor S462A/T465A (D2) (human, UniProt P21554 1-472, S462A | T465A)
[2] = molecular target: T2, pplss-3HA-hCB1 receptor S462A/S464A/T465A (T) (human, UniProt P21554 1-472, S462A | S464A | T465A)
[3] = molecular target: T3, pplss-3HA-hCB1 receptor T465A/S468A (D4) (human, UniProt P21554 1-472, T465A | S468A)
[4] = molecular target: T4, pplss-3HA-hCB1 receptor S425A/S429A (D1) (human, UniProt P21554 1-472, S425A | S429A)
[5] = molecular target: T5, pplss-3HA-hCB1 receptor, wild type (human, UniProt P21554 1-472)
[6] = molecular target: T6, pplss-3HA-hCB1 receptor S464A/T467A (D3) (human, UniProt P21554 1-472, S464A | T467A)
[7] = molecular target: T1, pplss-3HA-hCB1 receptor S462A/T465A (D2); remark: listed apart in the source
[8] = molecular target: T2, pplss-3HA-hCB1 receptor …; remark: listed apart in the source
[9] = molecular target: T3, pplss-3HA-hCB1 receptor T465A/S468A (D4); remark: listed apart in the source
[10] = molecular target: T4, pplss-3HA-hCB1 receptor S425A/S429A (D1); remark: listed apart in the source
[11] = molecular target: T5, pplss-3HA-hCB1 receptor, wild type; remark: listed apart in the source
[12] = molecular target: T6, pplss-3HA-hCB1 receptor S464A/T467A (D3); remark: listed apart in the source

B1: Nluc-(human)-Arrestin-2-Sp1 (natural protein, UniProt P49407 1-418, looked up)
chain: MGDKGTRVFKKASPNGKLTVYLGKRDFVDHIDLVDPVDGVVLVDPEYLKERRVYVTLTCAFRYGREDLDVLGLTFRKDLFVANVQSFPPAPEDKKPLTRLQERLIKKLGEHAYPFTFEIPPNLPCSVTLQPGPEDTGKACGVDYEVKAFCAENLEEKIHKRNSVRLVIRKVQYAPERPGPQPTAETTRQFLMSDKPLHLEASLDKEIYYHGEPISVNVHVTNNTNKTVKKIKISVRQYADICLFNTAQYKCPVAMEEADDTVAPSSTFCKVYTLTPFLANNREKRGLALDGKLKHEDTNLASSTLLREGANREILGIIVSYKVKVKLVVSRGGLLGDLASSDVAVELPFTLMHPKPKEEPPHREVPENETPVDTNLIELDTNDDDIVFEDFARQRLKGMKDDKEEEEDGTGSPQLNNR
initial rate of translocation [1]: 3.77e-05 ΔBRET ratio per second | steady state (ΔBRET ratio) [1]: 0.012 ΔBRET ratio | translocation half time [1]: 286 s | initial rate of translocation [2]: 3.32e-05 ΔBRET ratio per second | steady state (ΔBRET ratio) [2]: 0.014 ΔBRET ratio | translocation half time [2]: 354 s | initial rate of translocation [3]: 7.31e-05 ΔBRET ratio per second | steady state (ΔBRET ratio) [3]: 0.022 ΔBRET ratio | translocation half time [3]: 210 s | initial rate of translocation [4]: 5.81e-05 ΔBRET ratio per second | steady state (ΔBRET ratio) [4]: 0.036 ΔBRET ratio | translocation half time [4]: 569 s | initial rate of translocation [5]: 0.000136 ΔBRET ratio per second | steady state (ΔBRET ratio) [5]: 0.036 ΔBRET ratio | translocation half time [5]: 185 s | initial rate of translocation [6]: 3.06e-05 ΔBRET ratio per second | steady state (ΔBRET ratio) [6]: 0.014 ΔBRET ratio | translocation half time [6]: 354 s | Emax of net translocation (%WT) [7]: 32.3 %WT | Emax of net translocation (%WT) [8]: 25.6 %WT | Emax of net translocation (%WT) [9]: 61.6 %WT | Emax of net translocation (%WT) [10]: 72.3 %WT | Emax of net translocation (%WT) [11]: 100 %WT | Emax of net translocation (%WT) [12]: 32.9 %WT
